The results in this text go back to publication PMC4945075.

What is called Kd is the concentration at which binding is half-saturated. Read a high Kd as weaker binding.

The assay concerns the target T1, His-tagged cyt-SpoIIE (cytosolic part of SpoIIE), fluorescently labeled (B. subtilis).
T1 sequence (P37475 whole entry, looked up): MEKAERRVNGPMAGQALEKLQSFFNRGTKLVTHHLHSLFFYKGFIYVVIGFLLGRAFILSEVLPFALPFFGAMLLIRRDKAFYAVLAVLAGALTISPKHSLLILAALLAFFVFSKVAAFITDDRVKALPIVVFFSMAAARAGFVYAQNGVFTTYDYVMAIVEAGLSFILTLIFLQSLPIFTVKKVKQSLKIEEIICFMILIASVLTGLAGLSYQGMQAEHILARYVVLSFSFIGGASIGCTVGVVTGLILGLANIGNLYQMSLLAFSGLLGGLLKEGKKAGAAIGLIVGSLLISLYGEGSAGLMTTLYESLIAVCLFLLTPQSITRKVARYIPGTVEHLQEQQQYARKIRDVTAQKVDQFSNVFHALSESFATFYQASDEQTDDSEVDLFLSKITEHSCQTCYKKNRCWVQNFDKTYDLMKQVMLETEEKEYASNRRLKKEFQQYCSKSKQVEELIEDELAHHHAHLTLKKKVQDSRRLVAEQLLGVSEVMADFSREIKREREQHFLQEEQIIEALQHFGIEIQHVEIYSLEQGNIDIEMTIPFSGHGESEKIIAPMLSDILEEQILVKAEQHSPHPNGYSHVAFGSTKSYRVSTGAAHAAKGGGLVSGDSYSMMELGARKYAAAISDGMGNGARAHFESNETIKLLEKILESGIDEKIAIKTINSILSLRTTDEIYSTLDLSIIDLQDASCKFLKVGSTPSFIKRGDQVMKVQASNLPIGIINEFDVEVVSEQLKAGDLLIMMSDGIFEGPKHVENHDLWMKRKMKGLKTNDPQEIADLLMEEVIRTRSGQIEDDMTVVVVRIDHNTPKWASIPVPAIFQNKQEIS
As to the kind of experiment: MST; labeled cyt-SpoIIE constant at 34 μM, unlabeled cyt-RodZ titrated 6.7 nM to 221 μM; 25 mM Tris-HCl pH 8.0, 150 mM NaCl, 40 mM imidazole, 5% glycerol, 0.05% Tween-20; Monolith NT.115; 'preliminary Kd'.

B1: His6-tagged cyt-RodZ (cytosolic part of RodZ) (domain or fragment)
chain: MFVVTELGIRLKEAREEKAMSLDDLQAATKIQKRYLTALEEGNYDIIPGKFYVRAFIKQYAEAVGLDADQLFEEHKKDIPNTYHDDVSEKI
With B1, the Kd came out at 10 µM.
